Test results: the supplement of paper PMC10065799, “High-throughput profiling of sequence recognition by tyrosine kinases and SH2 domains using bacterial peptide display” (eLife, 2023)

Biological target: Hck (UniProt P08631)
Assay: phosphorylation enrichment, bacterial display (enrichment ratio); higher = better substrate or ligand; peptides without Tyr show the background
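Note: 11-residue human phosphosite peptides and single-mutation variants displayed on the E. coli surface, counted by deep sequencing, each peptide's frequency after selection divided by its frequency in the unselected input library; frequency after pTyr selection over input frequency; kinase dosed for 20-30% of maximal phosphorylation in three min.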

Hck, sequence (P08631 whole entry, looked up): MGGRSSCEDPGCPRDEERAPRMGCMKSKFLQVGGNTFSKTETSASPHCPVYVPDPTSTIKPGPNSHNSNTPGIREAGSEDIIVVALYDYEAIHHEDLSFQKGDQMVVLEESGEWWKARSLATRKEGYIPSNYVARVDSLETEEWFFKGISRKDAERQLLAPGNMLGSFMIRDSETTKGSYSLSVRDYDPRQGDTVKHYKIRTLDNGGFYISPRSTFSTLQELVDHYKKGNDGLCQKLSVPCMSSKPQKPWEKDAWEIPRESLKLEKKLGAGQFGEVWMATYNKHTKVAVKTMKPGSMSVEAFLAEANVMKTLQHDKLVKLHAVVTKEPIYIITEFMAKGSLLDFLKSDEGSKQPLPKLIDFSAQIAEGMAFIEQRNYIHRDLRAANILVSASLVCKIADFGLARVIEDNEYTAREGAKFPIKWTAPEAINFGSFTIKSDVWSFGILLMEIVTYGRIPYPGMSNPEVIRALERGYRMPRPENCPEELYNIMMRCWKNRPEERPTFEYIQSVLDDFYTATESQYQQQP

Sequence | phosphorylation enrichment
MKDLTYSSLCF [ALOX5_Y446_A447S] | 6.78
TMKSRYMELYD [BBS2_Y644] | 0.694
FETVKYFNNER [ABCB7_Y345_YF] | 0.381
PPNSPYMGSSP [KCNT1_Y740_I741M] | 0.521
ETSHNYHKFDS [MATR3_Y243] | 0.395
LQKPMYEVQWK [KIT_Y553] | 0.788
HNLDYYKETTN [FGFR3_Y648_K650E] | 0.734
CPFNLYAEQFS [HGD_Y40_L44F_YF] | 1.08
SVVLPYEPPEV [TP53_Y220_V218L] | 0.518
RFGKVYKGHLF [ROR2_Y488] | 0.604
SRNSKYNAEST [PSEN1_Y315_K311R] | 0.323
ASYGPNTRVQS [FOXL2_Y258_Y258N] | 0.454
SRGHQYQELPR [KCNH2_Y1009_R1007H] | 1.06
NTFEKYWPFFQ [GATM_Y103_YF] | 1.42
QRASDYFSQQM [GBP6_Y333_A331S_YF] | 0.866
DAGTDYVGISR [FREM2_Y2061] | 0.545
LFSGDCFRIQG [DDR2_Y740_Y740C_YF] | 0.486
APTSGYREFVH [IL4R_Y575_Q576R] | 0.379
TEGNEYVFRVA | 0.486
LDFPEYDGVDR [CASQ1_Y43] | 1.11
EYQKKYSDADI [CKAP5_Y1860_K1857Q] | 0.383
EEGESDVCSSD [DCX_Y125_Y125D] | 0.457
GLRSYYETSKM [MAGED2_Y449] | 0.656
RLRVVYPWTQR [HBB_Y36_L33R] | 0.364
YIPFRYPKEFQ [IDS_Y234_H229Y] | 0.831
TGNGYYFRVFS [MYBPC3_Y1136_I1131T] | 0.436
IITDFYVDMKF [MPP4_Y567_V562I_YF] | 0.722
WVYNHYRWIIW [BRCA2_Y2624] | 0.461
FYNSEYGELSE [FLT4_Y1337] | 0.997

Biological target: MERTK (UniProt Q12866)
Sequence (Q12866 whole entry, looked up): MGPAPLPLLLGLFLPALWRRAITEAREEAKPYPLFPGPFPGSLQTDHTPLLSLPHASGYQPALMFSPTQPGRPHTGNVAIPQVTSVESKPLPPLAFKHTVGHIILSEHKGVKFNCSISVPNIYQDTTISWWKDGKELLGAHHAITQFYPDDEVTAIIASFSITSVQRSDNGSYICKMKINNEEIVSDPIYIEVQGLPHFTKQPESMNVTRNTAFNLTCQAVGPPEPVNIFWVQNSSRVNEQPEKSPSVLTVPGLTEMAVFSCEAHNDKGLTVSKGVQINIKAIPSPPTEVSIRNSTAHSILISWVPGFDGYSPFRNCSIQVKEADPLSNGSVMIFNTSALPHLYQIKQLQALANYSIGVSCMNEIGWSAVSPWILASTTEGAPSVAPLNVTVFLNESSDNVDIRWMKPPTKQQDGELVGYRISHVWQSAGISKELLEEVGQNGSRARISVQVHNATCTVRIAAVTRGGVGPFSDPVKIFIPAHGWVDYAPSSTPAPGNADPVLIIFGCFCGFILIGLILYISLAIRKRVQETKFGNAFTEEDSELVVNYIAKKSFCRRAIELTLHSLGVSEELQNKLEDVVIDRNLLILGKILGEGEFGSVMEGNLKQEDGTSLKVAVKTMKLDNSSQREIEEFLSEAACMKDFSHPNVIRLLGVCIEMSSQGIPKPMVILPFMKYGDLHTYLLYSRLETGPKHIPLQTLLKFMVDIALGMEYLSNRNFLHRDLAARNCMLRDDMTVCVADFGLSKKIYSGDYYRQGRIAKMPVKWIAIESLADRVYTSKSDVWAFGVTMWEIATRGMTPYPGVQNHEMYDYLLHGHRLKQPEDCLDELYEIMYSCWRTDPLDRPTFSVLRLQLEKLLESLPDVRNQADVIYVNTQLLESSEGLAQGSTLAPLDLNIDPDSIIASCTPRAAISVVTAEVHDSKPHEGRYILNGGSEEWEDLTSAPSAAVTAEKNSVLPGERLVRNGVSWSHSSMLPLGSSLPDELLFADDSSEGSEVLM
Assay: as above

Sequence | phosphorylation enrichment
MKDLTYSSLCF [ALOX5_Y446_A447S] | 4.91
TMKSRYMELYD [BBS2_Y644] | 0.456
FETVKYFNNER [ABCB7_Y345_YF] | 0.288
PPNSPYMGSSP [KCNT1_Y740_I741M] | 0.468
ETSHNYHKFDS [MATR3_Y243] | 0.393
LQKPMYEVQWK [KIT_Y553] | 1.28
HNLDYYKETTN [FGFR3_Y648_K650E] | 0.553
CPFNLYAEQFS [HGD_Y40_L44F_YF] | 1.6
SVVLPYEPPEV [TP53_Y220_V218L] | 0.47
RFGKVYKGHLF [ROR2_Y488] | 1.02
SRNSKYNAEST [PSEN1_Y315_K311R] | 0.464
ASYGPNTRVQS [FOXL2_Y258_Y258N] | 0.435
SRGHQYQELPR [KCNH2_Y1009_R1007H] | 0.576
NTFEKYWPFFQ [GATM_Y103_YF] | 0.886
QRASDYFSQQM [GBP6_Y333_A331S_YF] | 0.711
DAGTDYVGISR [FREM2_Y2061] | 0.414
LFSGDCFRIQG [DDR2_Y740_Y740C_YF] | 0.425
APTSGYREFVH [IL4R_Y575_Q576R] | 0.483
TEGNEYVFRVA | 0.421
LDFPEYDGVDR [CASQ1_Y43] | 0.556
EYQKKYSDADI [CKAP5_Y1860_K1857Q] | 0.432
EEGESDVCSSD [DCX_Y125_Y125D] | 0.495
GLRSYYETSKM [MAGED2_Y449] | 0.546
RLRVVYPWTQR [HBB_Y36_L33R] | 0.819
YIPFRYPKEFQ [IDS_Y234_H229Y] | 0.554
TGNGYYFRVFS [MYBPC3_Y1136_I1131T] | 0.353
IITDFYVDMKF [MPP4_Y567_V562I_YF] | 0.511
WVYNHYRWIIW [BRCA2_Y2624] | 0.301
FYNSEYGELSE [FLT4_Y1337] | 0.589

Biological target: EPHB2 (UniProt P29323)
Sequence (P29323 whole entry, looked up): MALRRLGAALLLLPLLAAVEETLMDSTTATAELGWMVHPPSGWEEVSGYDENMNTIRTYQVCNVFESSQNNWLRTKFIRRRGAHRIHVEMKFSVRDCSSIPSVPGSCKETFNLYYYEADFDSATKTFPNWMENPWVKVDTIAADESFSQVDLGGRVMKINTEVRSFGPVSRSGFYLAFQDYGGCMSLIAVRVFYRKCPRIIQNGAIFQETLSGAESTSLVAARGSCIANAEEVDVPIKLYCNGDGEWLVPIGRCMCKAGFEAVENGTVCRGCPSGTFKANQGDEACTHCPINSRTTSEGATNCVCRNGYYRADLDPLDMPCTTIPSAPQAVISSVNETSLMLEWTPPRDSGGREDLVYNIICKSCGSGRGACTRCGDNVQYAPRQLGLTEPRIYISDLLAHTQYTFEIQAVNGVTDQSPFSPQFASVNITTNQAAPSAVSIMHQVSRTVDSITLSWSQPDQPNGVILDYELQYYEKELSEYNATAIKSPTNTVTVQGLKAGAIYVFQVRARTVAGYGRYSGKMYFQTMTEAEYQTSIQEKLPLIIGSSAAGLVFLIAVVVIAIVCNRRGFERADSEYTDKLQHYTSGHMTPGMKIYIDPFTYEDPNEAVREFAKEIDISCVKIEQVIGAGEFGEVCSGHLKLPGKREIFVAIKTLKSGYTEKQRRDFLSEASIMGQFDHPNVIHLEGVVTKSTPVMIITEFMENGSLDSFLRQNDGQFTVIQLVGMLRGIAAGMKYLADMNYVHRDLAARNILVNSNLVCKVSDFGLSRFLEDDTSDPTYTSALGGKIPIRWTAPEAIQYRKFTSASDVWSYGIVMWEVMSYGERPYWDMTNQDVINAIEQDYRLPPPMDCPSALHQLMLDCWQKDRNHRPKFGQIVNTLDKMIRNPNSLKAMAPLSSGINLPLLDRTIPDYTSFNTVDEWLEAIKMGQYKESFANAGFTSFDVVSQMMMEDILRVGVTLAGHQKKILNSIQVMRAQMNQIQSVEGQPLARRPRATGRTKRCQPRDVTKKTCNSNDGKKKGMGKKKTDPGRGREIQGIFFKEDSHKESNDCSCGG
Assay: as above

Sequence | phosphorylation enrichment
MKDLTYSSLCF [ALOX5_Y446_A447S] | 2.67
TMKSRYMELYD [BBS2_Y644] | 0.608
FETVKYFNNER [ABCB7_Y345_YF] | 0.445
PPNSPYMGSSP [KCNT1_Y740_I741M] | 0.536
ETSHNYHKFDS [MATR3_Y243] | 0.451
LQKPMYEVQWK [KIT_Y553] | 0.912
HNLDYYKETTN [FGFR3_Y648_K650E] | 0.857
CPFNLYAEQFS [HGD_Y40_L44F_YF] | 1.29
SVVLPYEPPEV [TP53_Y220_V218L] | 0.797
RFGKVYKGHLF [ROR2_Y488] | 0.767
SRNSKYNAEST [PSEN1_Y315_K311R] | 0.46
ASYGPNTRVQS [FOXL2_Y258_Y258N] | 0.407
SRGHQYQELPR [KCNH2_Y1009_R1007H] | 0.602
NTFEKYWPFFQ [GATM_Y103_YF] | 0.512
QRASDYFSQQM [GBP6_Y333_A331S_YF] | 0.854
DAGTDYVGISR [FREM2_Y2061] | 0.492
LFSGDCFRIQG [DDR2_Y740_Y740C_YF] | 0.602
APTSGYREFVH [IL4R_Y575_Q576R] | 0.342
TEGNEYVFRVA | 0.627
LDFPEYDGVDR [CASQ1_Y43] | 0.865
EYQKKYSDADI [CKAP5_Y1860_K1857Q] | 0.481
EEGESDVCSSD [DCX_Y125_Y125D] | 0.507
GLRSYYETSKM [MAGED2_Y449] | 0.584
RLRVVYPWTQR [HBB_Y36_L33R] | 0.363
YIPFRYPKEFQ [IDS_Y234_H229Y] | 0.485
TGNGYYFRVFS [MYBPC3_Y1136_I1131T] | 0.657
IITDFYVDMKF [MPP4_Y567_V562I_YF] | 1.08
WVYNHYRWIIW [BRCA2_Y2624] | 0.597
FYNSEYGELSE [FLT4_Y1337] | 0.956

Biological target: FGFR1 (UniProt P11362)
Sequence (P11362 whole entry, looked up): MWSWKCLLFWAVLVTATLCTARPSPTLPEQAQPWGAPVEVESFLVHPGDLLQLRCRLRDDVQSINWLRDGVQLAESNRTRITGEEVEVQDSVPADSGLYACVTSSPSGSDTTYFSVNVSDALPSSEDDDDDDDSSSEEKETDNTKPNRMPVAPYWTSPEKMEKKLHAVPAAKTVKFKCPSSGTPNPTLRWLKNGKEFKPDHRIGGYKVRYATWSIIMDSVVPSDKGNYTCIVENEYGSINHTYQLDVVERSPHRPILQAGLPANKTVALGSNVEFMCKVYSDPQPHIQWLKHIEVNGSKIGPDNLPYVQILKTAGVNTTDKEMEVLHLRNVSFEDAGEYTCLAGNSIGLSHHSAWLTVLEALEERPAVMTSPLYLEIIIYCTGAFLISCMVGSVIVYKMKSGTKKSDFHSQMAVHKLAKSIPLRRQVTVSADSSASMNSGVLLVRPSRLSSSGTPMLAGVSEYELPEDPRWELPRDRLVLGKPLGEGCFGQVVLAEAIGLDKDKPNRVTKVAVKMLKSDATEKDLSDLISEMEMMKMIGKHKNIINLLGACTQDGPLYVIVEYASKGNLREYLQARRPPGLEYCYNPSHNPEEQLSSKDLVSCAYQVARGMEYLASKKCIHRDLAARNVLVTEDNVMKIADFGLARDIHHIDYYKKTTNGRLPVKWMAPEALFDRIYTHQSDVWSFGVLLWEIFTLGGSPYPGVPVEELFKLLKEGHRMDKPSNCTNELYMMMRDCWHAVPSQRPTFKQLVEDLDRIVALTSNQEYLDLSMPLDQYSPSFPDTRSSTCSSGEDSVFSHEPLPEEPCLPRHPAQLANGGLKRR
Assay: as above

Sequence | phosphorylation enrichment
MKDLTYSSLCF [ALOX5_Y446_A447S] | 0.997
TMKSRYMELYD [BBS2_Y644] | 0.489
FETVKYFNNER [ABCB7_Y345_YF] | 0.417
PPNSPYMGSSP [KCNT1_Y740_I741M] | 0.632
ETSHNYHKFDS [MATR3_Y243] | 0.393
LQKPMYEVQWK [KIT_Y553] | 0.851
HNLDYYKETTN [FGFR3_Y648_K650E] | 2.08
CPFNLYAEQFS [HGD_Y40_L44F_YF] | 0.747
SVVLPYEPPEV [TP53_Y220_V218L] | 0.538
RFGKVYKGHLF [ROR2_Y488] | 0.661
SRNSKYNAEST [PSEN1_Y315_K311R] | 0.378
ASYGPNTRVQS [FOXL2_Y258_Y258N] | 0.444
SRGHQYQELPR [KCNH2_Y1009_R1007H] | 0.609
NTFEKYWPFFQ [GATM_Y103_YF] | 1.08
QRASDYFSQQM [GBP6_Y333_A331S_YF] | 0.684
DAGTDYVGISR [FREM2_Y2061] | 0.541
LFSGDCFRIQG [DDR2_Y740_Y740C_YF] | 0.516
APTSGYREFVH [IL4R_Y575_Q576R] | 0.462
TEGNEYVFRVA | 0.647
LDFPEYDGVDR [CASQ1_Y43] | 0.59
EYQKKYSDADI [CKAP5_Y1860_K1857Q] | 0.46
EEGESDVCSSD [DCX_Y125_Y125D] | 0.497
GLRSYYETSKM [MAGED2_Y449] | 1.44
RLRVVYPWTQR [HBB_Y36_L33R] | 0.422
YIPFRYPKEFQ [IDS_Y234_H229Y] | 0.748
TGNGYYFRVFS [MYBPC3_Y1136_I1131T] | 0.542
IITDFYVDMKF [MPP4_Y567_V562I_YF] | 1.37
WVYNHYRWIIW [BRCA2_Y2624] | 0.499
FYNSEYGELSE [FLT4_Y1337] | 0.628
